Tested on: MS2 coat protein
Experiment: apparent KD of MS2 coat protein; designed switch direction (-1 OFF switch, 1 ON switch): -1; higher = weaker reporter binding
Outline: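 Apparent KD, taken as the median over clusters for each design, was obtained by curve-fitting normalised cluster fluorescence. Designed RNA switches had been transcribed on Illumina chips by stalled E. coli RNA polymerase and titrated with SNAP-549-labelled MS2 coat protein, doubling from 0.7 or 1.5 nM to 3 µM.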

[1] = input ligand: microRNA oligo, concentration not stated
[2] = Eterna round: R95, input ligand: microRNA oligo, concentration not stated
[3] = Eterna round: R95, input ligand: FMN 200 uM
[4] = Eterna round: R95, input ligand: none

Sequence: AACCUAAGGCAAAGCUUUAGGUGUACAUGAGGAUCACCCAUGUAGGAUAUGGUAGGCAAAGCUUACCAGAAGGACAUUAUGAUA [Mat - Exclusion NG 3 - Mod of JL - D53] (Eterna round: R96, puzzle: Exclusion NG 3)
- apparent KD of MS2 coat protein (input ligand: FMN 200 uM): 82.1 nM
- apparent KD of MS2 coat protein [1]: 27.5 nM
- apparent KD of MS2 coat protein (input ligand: none): 55.2 nM

Sequence: AACCUGAGGCUUUGCUUUAGGUUUACAUGAGGAUCACCCAUGUAGGAUAUGGUAGGCUUUGCUUACCAGAAGGACAUGAAAAUU [Mat - Exclusion NG 3 - Mod of JL - D28] (Eterna round: R96, puzzle: Exclusion NG 3)
- apparent KD of MS2 coat protein (input ligand: FMN 200 uM): 225 nM
- apparent KD of MS2 coat protein [1]: 40.4 nM
- apparent KD of MS2 coat protein (input ligand: none): 44.2 nM

Sequence: AACGCUAAAGGAUAUACAUGAGGAUCACCCAUGUUGAGGAAGGUUAGAUGAGGAGUAAGUAGAAGGUUAGACGA [JR_Exclu3_Sub090] (puzzle: Exclusion 3)
- apparent KD of MS2 coat protein [2]: 23.7 nM

Sequence: AACUACUCUGUGAGGAUAUGCGAUCGUUGAUCAAAGCAGAAGGCACAUGAGGAUCACCCAUGUUCCUACGAGGG [Edatbiat] (puzzle: Brourd's mod of Exclusion 4)
- apparent KD of MS2 coat protein [2]: 30.2 nM

Sequence: AACUCACAUGAGGAUCACCCAUGUGAGGAUAUGGAUUCGCUGGCCGUAGCCAGUGGAUCCAGAAGGCGCAUGAU [JL-ex1-4.10] (Eterna round: R97, puzzle: Exclusion 1)
- apparent KD of MS2 coat protein (input ligand: FMN 200 uM): 23.1 nM
- apparent KD of MS2 coat protein (input ligand: none): 21.2 nM

Sequence: AACUUCUGAGGAUAUACAUAGAUUUACAUGAGGAUCACCCAUGUUCCUCUUUGUAUAAAUGUAGAAGGCAGAAGAA [Mat - Exclusion 5 - JL Mod - D72] (Eterna round: R97, puzzle: Exclusion 5)
- apparent KD of MS2 coat protein (input ligand: FMN 200 uM): 349 nM
- apparent KD of MS2 coat protein (input ligand: none): 203 nM

Sequence: AAGAAAAGGAGAGGAUAUGCGAAAGGAAGUGUAGCAGAAGGCUUCGGGUAAGUCCACAUGAGGAUCACCCAUGUUAAUAAAAGA [PowerStrip EXNG 1.19] (Eterna round: R96, puzzle: Exclusion NG 1)
- apparent KD of MS2 coat protein (input ligand: FMN 200 uM): 345 nM
- apparent KD of MS2 coat protein [1]: 290 nM
- apparent KD of MS2 coat protein (input ligand: none): 436 nM

Sequence: AAGAAACAUGAGGAUCACCCAUGUGAGGAUAUGAGUAAGAAAAGAAAAGAAAGAAGAGUCAGAAGGCACAAAGG [salish99-ex1_r3_060] (puzzle: Exclusion 1)
- apparent KD of MS2 coat protein [3]: 49.5 nM
- apparent KD of MS2 coat protein [2]: 35.4 nM
- apparent KD of MS2 coat protein [4]: 41.5 nM

Sequence: AAGAAACAUGAGGAUCACCCAUGUGAGGAUAUGAUGAGUAUUAUGUAUGUAGUAUGAAUCAGAAGGCACAAAGG [Mat - Mod Mix D40] (puzzle: Exclusion 1)
- apparent KD of MS2 coat protein [3]: 224 nM
- apparent KD of MS2 coat protein [2]: 95 nM
- apparent KD of MS2 coat protein [4]: 158 nM

Sequence: AAGAAACAUGAGGAUCACCCAUGUGAGGAUAUGGAAAAGAAAAGAAAAGAAAGAAGAAUCAGAAGGCACAAAGG [salish99-ex1_r3_020] (puzzle: Exclusion 1)
- apparent KD of MS2 coat protein [3]: 40.8 nM
- apparent KD of MS2 coat protein [2]: 33.7 nM
- apparent KD of MS2 coat protein [4]: 37.6 nM

Sequence: AAGAAACAUGAGGAUCACCCAUGUGAGGAUAUGUAAAGAAAAGAAAAAGAAAAGAAAAACAGAAGGCACAAAGA [JR_Exclusion1_Sub001] (puzzle: Exclusion 1)
- apparent KD of MS2 coat protein [3]: 38.7 nM
- apparent KD of MS2 coat protein [2]: 43.6 nM
- apparent KD of MS2 coat protein [4]: 34 nM

Sequence: AAGAAACGAGGAUAUACAAUUAAGAGAGAGAAGGAAAUGAGACAUGAGGAUCACCCAUGUAGAAGGCGUAAGAA [JR_Exclu2_Sub082] (puzzle: Exclusion 2)
- apparent KD of MS2 coat protein [3]: 27.6 nM
- apparent KD of MS2 coat protein [2]: 31.1 nM
- apparent KD of MS2 coat protein [4]: 26.5 nM

Sequence: AAGAAGAAGUAAGGAUAUGAAGAUUUGGUGAUAACAUGAGGAUCACCCAUGUGAAAACAAUAAGAUCAGAAGGUAUAAGAAGAA [AK ExNG2-2.1] (Eterna round: R96, puzzle: Exclusion NG 2)
- apparent KD of MS2 coat protein (input ligand: FMN 200 uM): 53.9 nM
- apparent KD of MS2 coat protein [1]: 42.1 nM
- apparent KD of MS2 coat protein (input ligand: none): 72.1 nM

Sequence: AAGAAGAUCAAAGGAUAUGGAGCUGAAACGGCGCUAGAAGGUUGUCUAGUGUAACAUGAGGAUCACCCAUGUAGGGACCUCUAA [AK ExNG1-V2-2] (Eterna round: R96, puzzle: Exclusion NG 1)
- apparent KD of MS2 coat protein (input ligand: FMN 200 uM): 562 nM
- apparent KD of MS2 coat protein [1]: 385 nM
- apparent KD of MS2 coat protein (input ligand: none): 644 nM

Sequence: AAGAGGAUUAUAGGAUAUGAAGCUAAAACGGCGUUAGAAGGGUAUACAGAGUUACAUGAGGAUCACCCAUGUUGUGAUUUCUAA [AK ExNG1-V2-4.3] (Eterna round: R96, puzzle: Exclusion NG 1)
- apparent KD of MS2 coat protein (input ligand: FMN 200 uM): 52.6 nM
- apparent KD of MS2 coat protein [1]: 36.9 nM
- apparent KD of MS2 coat protein (input ligand: none): 62.5 nM

Sequence: AAGAGUGAGCGAGGAUAUUGAUUUUGGCGUAGUCAAGAAGGCGCGUACAUGAGGAUCACCCAUGUGCUCAGAGCGCAAAAGGGU [Gequon] (Eterna round: R96, puzzle: Exclusion NG 1)
- apparent KD of MS2 coat protein (input ligand: FMN 200 uM): 208 nM
- apparent KD of MS2 coat protein [1]: 49.8 nM
- apparent KD of MS2 coat protein (input ligand: none): 68.2 nM

Sequence: AAGAUGCGGGUAGGAUAUGGGAAUUAAUAAAGACCAGAAGGACUGGUCACACAACAUGAGGAUCACCCAUGUGUGUGUAGUGAA [exng1 ex1] (Eterna round: R96, puzzle: Exclusion NG 1)
- apparent KD of MS2 coat protein [1]: 9.2 nM

Sequence: AAGCAGCGAGGAUAUGCUUGCGCGUGUCCUAGUUGAAAUAAACUUGAGGAUCACCCAAGUAGAAGGCGCAACCC [EX2 #42] (Eterna round: R97, puzzle: Exclusion 2)
- apparent KD of MS2 coat protein (input ligand: FMN 200 uM): 197 nM
- apparent KD of MS2 coat protein (input ligand: none): 41.9 nM

Sequence: AAGCAUUGCCAAAGGUAGUGCAAAACAUGAGGAUCACCCAUGUAGGAUAUGGUAGGCAAAGCUUACCAGAAGGACAUGAUAAAU [Mat - Exclusion NG 3 - Mod of JL - D19] (Eterna round: R96, puzzle: Exclusion NG 3)
- apparent KD of MS2 coat protein (input ligand: FMN 200 uM): 218 nM
- apparent KD of MS2 coat protein [1]: 28 nM
- apparent KD of MS2 coat protein (input ligand: none): 42 nM

Sequence: AAGGAUAGAGGAUAUACAUAGAUACAGAUUCAUGUAAUCCUACAUGAGGAUCACCCAUGUAGAAGGCUAUCCUA [Fiskers Ex 2 - 15] (puzzle: Exclusion 2)
- apparent KD of MS2 coat protein [2]: 14.5 nM

Sequence: AAGGAUAGAGGAUAUACGUAGAUACAGAUUCAUGUAGAACUACAUGAGGAUCACCCAUGUAGAAGGCUAUCCUA [Fiskers Ex 2 - 6] (Eterna round: R96, puzzle: Exclusion 2)
- apparent KD of MS2 coat protein (input ligand: FMN 200 uM): 354 nM
- apparent KD of MS2 coat protein [1]: 24.8 nM
- apparent KD of MS2 coat protein (input ligand: none): 29 nM

Sequence: AAGGAUAGAGGAUAUACGUAGAUACAGAUUCAUGUAGAACUACAUGAGGAUCACCCAUGUAGAAGGCUAUCCUA [Fiskers Ex 2 - 6] (puzzle: Exclusion 2)
- apparent KD of MS2 coat protein [2]: 26.5 nM

Sequence: AAGGAUAGAGGAUAUGCAUAGAUACAGAUUCAUGUAGAACUACAUGAGGAUCACCCAUGUAGAAGGCUAUCCUA [Fiskers Ex 2 - 5] (puzzle: Exclusion 2)
- apparent KD of MS2 coat protein [2]: 17.3 nM

Sequence: AAGGAUCGAGGAUAUACAUAGAUACAGAUUCAUGUAGAACUACAUGAGGAUCACCCAUGUAGAAGGCGAUCCUA [Mat - Same state - Mayanna Mod - D120] (Eterna round: R96, puzzle: Exclusion 2)
- apparent KD of MS2 coat protein (input ligand: FMN 200 uM): 367 nM
- apparent KD of MS2 coat protein [1]: 31.1 nM
- apparent KD of MS2 coat protein (input ligand: none): 41.3 nM

Sequence: AAGGGUACUUUCAGAACGACAUGAGGAUCACCCAUGUAGACUGAGGAUAUCUGCUACUAAGGACGGGAGAAGGCAGUGUAAUGU [Ex NG3 #74] (Eterna round: R96, puzzle: Exclusion NG 3)
- apparent KD of MS2 coat protein (input ligand: FMN 200 uM): 10.6 nM
- apparent KD of MS2 coat protein [1]: 11.1 nM
- apparent KD of MS2 coat protein (input ligand: none): 14.2 nM

Sequence: AAGGGUGCUUUCAGAACGACAUGAGGAUCACCCAUGUAGACUGAGGAUAUCUACUCCUAAGGACGGGAGAAGGCAGUGUAAUGC [Ex NG3 #65] (Eterna round: R96, puzzle: Exclusion NG 3)
- apparent KD of MS2 coat protein (input ligand: FMN 200 uM): 19.5 nM
- apparent KD of MS2 coat protein [1]: 14.2 nM
- apparent KD of MS2 coat protein (input ligand: none): 21.7 nM

Sequence: AAGUACCGUCACGAUAGUGAUGGUACAACAGGCAGUGAAACAUGAGGAUCACCCAUGUCCUCAAUUGCUCGUCUUAU [Sensor 3 - 77] (puzzle: Sensor v3, turn-off variant 2)
- apparent KD of MS2 coat protein [3]: 77.6 nM
- apparent KD of MS2 coat protein [2]: 192 nM
- apparent KD of MS2 coat protein [4]: 98.7 nM

Sequence: AAGUAGACGGUGAGGAUAUAGGUCGAAUGACCGAUUUAGAAGGUACAUGAGGAUCACCCAUGUGGGUAACGUCG [Brourd's EX4 #29] (Eterna round: R97, puzzle: Brourd's mod of Exclusion 4)
- apparent KD of MS2 coat protein (input ligand: FMN 200 uM): 56.5 nM
- apparent KD of MS2 coat protein (input ligand: none): 107 nM

Sequence: AAGUAUAGAGGAUAUAGUGAGUACUACAUGAGGAUCACCCAUGUUCUUCAUUACGUAUUUCUAGAAGGCUGAUAAA [EX-5 Malc#24] (puzzle: Exclusion 5)
- apparent KD of MS2 coat protein [3]: 611 nM
- apparent KD of MS2 coat protein [2]: 261 nM
- apparent KD of MS2 coat protein [4]: 289 nM

Sequence: AAGUCGACGGUGAGGAUAUAGGUCGAACGACAGAUCUAGAAGGUACAUGAGGAUCACCCAUGUGGGUAACGUCG [Brourd's EX4 #35] (Eterna round: R97, puzzle: Brourd's mod of Exclusion 4)
- apparent KD of MS2 coat protein (input ligand: FMN 200 uM): 36.8 nM
- apparent KD of MS2 coat protein (input ligand: none): 32.4 nM

Sequence: AAGUCGACGGUGAGGAUAUAGGUCGAACGACCGAUCUAGAAGGCACAUGAGGAUCACCCAUGUGGGUAACGUCG [Brourd's EX4 #33] (Eterna round: R97, puzzle: Brourd's mod of Exclusion 4)
- apparent KD of MS2 coat protein (input ligand: FMN 200 uM): 29 nM
- apparent KD of MS2 coat protein (input ligand: none): 22.3 nM

Sequence: AAUAAAACAUAGGAUAUCGAAUUUAUUAUUUAACGAGAAGGAUGAACAUGAGGAUCACCCAUGUGGUAUCAUGG [Mat - Exclusion 6 - JL Mod - D24] (puzzle: Exclusion 6)
- apparent KD of MS2 coat protein [3]: 258 nM
- apparent KD of MS2 coat protein [2]: 190 nM
- apparent KD of MS2 coat protein [4]: 207 nM

Sequence: AAUAACAAGCAGAUCCUAAACAUGAGGAUCACCCAUGUGCGCGUCUUGUAAAGUACUAUCACGAAAGUGAUAGUACA (Eterna round: R97, puzzle: Sensor, turn-off variant 1)
- apparent KD of MS2 coat protein (input ligand: FMN 200 uM): 190 nM
- apparent KD of MS2 coat protein (input ligand: none): 133 nM

Sequence: AAUAACAAGCCGAUCCUUCACAUGAGGAUCACCCAUGUGCUCGUCUUGUAAAGUACUAUCACGAAAGUGAUAGUACA (Eterna round: R97, puzzle: Sensor, turn-off variant 1)
- apparent KD of MS2 coat protein (input ligand: FMN 200 uM): 22.6 nM
- apparent KD of MS2 coat protein (input ligand: none): 19.9 nM

— the supplement of paper PMC9170038
